In patent US20060142192A1 (ZymoGenetics, published 2006):

Assays:
Assay in all cases: flow cytometry, biotinylated IL-17C (1 ug/ml) + SA-PE on transiently transfected 293fb cells
human IL-17R = target: T1, human IL-17R (human, UniProt Q96F46 33-866)
T1 construct: whole, on cells
T1 sequence (looked up): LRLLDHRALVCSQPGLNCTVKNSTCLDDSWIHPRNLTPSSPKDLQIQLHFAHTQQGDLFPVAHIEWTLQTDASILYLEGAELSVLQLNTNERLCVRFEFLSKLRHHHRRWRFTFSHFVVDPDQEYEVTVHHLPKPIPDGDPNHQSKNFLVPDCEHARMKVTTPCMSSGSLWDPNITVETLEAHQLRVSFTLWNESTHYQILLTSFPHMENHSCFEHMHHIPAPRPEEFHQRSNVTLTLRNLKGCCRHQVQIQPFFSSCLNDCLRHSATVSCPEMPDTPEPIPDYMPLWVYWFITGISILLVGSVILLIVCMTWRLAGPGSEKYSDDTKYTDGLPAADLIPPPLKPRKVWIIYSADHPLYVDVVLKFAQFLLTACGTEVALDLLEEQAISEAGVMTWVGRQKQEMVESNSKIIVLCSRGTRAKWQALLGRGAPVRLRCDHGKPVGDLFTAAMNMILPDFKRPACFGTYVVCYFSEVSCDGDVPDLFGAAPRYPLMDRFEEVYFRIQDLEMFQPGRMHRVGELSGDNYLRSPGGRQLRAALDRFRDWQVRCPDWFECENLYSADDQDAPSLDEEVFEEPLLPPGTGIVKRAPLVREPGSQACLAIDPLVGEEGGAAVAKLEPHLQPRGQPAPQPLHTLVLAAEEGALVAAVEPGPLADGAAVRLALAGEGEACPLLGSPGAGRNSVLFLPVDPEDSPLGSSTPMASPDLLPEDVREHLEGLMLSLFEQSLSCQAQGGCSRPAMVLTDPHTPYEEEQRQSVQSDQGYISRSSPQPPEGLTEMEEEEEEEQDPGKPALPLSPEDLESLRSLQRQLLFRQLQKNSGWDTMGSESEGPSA
Description: (§1) 293fb cells that had been transfected with expression vectors encoding human ZcytoR21x1 and ZcytoR21x2 were assessed for their ability to bind biotinylated human IL-17C. Control transfections included 1) no DNA transfection, 2) vector only (pzmp11), and 3) human IL17R. 10⁶ cells were removed from transfected suspension cultures at day 1, day 2, day 3, and day 5. Cells were pelleted and resuspended in 100 ul of staining media (SM), which is HBSS plus 1 mg/ml bovine serum albumin (BSA), 10 mM Hepes, and 0.1% sodium azide (w/v). Biotinylated human IL-17C was incubated with the cells on ice for 45 minutes at a concentration of 1 ug/ml. An APC conjugated anti-human CD8 antibody (BD Pharmingen; cat.#555369) was also added at 1:25 dilution. After 30 minutes, excess cytokine and antibody was washed away with SM and the cells were incubated with a 1:100 dilution of streptavidin conjugated to phycoerythrin (SA-PE; BD Pharmingen; cat# 554061) for 30 minutes on ice. Excess SA-PE was washed away and cells were analyzed by flow cytometry.
(§2) The amount of cytokine binding was detected from the change in the mean fluorescence intensity of the cytokine staining relative to negative controls —1) no DNA transfection and 2) vector only. […] Binding was also seen to human IL-17R.

human ZcytoR21x1 = target: T2, human ZcytoR21x1 (human, UniProt Q8NFR9 24-667)
T2 construct: also called hcytor21x1; IL-17RE
T2 sequence: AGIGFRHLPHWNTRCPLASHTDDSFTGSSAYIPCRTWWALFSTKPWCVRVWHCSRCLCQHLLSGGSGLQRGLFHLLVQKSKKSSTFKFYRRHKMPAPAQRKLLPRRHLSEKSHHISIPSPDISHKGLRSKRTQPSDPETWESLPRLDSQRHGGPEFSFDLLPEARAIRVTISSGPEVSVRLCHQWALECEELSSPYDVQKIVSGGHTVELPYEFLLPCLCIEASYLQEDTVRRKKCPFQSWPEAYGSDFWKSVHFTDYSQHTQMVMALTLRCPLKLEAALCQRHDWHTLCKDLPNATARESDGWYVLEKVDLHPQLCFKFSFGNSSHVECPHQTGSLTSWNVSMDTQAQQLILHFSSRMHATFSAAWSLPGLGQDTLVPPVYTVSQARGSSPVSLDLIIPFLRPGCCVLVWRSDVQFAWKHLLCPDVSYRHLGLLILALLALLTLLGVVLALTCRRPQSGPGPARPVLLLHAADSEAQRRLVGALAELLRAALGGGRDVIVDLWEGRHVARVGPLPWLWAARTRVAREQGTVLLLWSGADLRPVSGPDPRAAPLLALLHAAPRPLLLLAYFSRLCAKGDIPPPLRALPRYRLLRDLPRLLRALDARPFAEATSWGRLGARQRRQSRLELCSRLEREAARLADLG
Description: as §1, §2

human ZcytoR21x2 = target: T3, human ZcytoR21x2 (human, UniProt Q8NFR9 24-667)
T3 construct: also called hcytor21x2
T3 sequence: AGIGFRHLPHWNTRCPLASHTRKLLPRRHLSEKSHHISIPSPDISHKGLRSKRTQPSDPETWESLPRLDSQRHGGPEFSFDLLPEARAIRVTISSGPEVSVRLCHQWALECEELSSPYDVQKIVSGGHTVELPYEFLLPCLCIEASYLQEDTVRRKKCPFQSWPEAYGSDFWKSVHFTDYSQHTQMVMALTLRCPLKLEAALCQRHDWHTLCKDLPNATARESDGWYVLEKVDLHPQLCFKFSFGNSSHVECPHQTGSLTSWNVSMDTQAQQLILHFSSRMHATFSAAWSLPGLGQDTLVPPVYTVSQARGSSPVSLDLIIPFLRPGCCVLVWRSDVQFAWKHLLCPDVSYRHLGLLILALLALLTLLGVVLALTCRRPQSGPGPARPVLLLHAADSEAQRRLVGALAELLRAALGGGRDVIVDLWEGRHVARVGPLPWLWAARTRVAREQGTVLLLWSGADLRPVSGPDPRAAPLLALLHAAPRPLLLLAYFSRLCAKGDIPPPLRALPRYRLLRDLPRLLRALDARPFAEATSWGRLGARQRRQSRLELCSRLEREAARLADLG
Description: as §1, §2

binding result (human IL-17R): binds
binding result (human ZcytoR21x1): binds
binding result (human ZcytoR21x2): binds
B1: human IL-17C (ligand)
chain: HHDPSLRGHPHSHGTPHCYSAEELPLGQAPPHLLARGAKWGQALPVALVSSLEAASHRGRHERPSATTQCPVLRPEEVLEADTHQRSISPWRYRVDTDEDRYPQKLAFAECLCRGCIDARTGRETAALNSVRLLQSLLVLRRRPCSRDGSGLPTPGAFAFHTEFIHVPVGCTCVLPRSV
modifications: biotin label in the binding assays (sites not given); unlabelled in the signalling assays
notes: it is the last residue of the open reading frame as I know it; Recombinant forms made carried a C-terminal Glu-Glu tag (BHK) or His tag (293F); also called biotinylated human IL-17C; human IL-17C (A903G)
